Biological target: gamma complex labeled with AF488 on delta' (gammac-AF488);beta sliding clamp (Escherichia coli;Escherichia coli, UniProt P06710-2;P28630;P28631;P28905;P28632;P0A988 1-431;1-343;1-334;1-147;1-137;1-366, |)
Experiment: fluorescence anisotropy

B1: p/t-DNA-RhX (30-nt primer on 60-nt template) (dsDNA)
DNA 1: TTCAGGTCAGAAGGGTTCTATCTCTGTTGGCCAGAATGTCCCTTTTATTACTGGTCGTGT
DNA 2: ACACGACCAGTAATAAAAGGGACATTCTGG
modifications: C6-amino linker at 5' end of 60mer
B1: binds.
